Positions of bridges follow the written chain, without caps; N, C: chain ends. Non-standard residues stand in square brackets, D forms with d. Primed or numbered codes have the meaning given here. PEG3″ = N-terminal PEG3 linker; FAM″ = 5,6-carboxyfluorescein; S5 = C=CCCC[C@](C)(N)C(=O)O; Nle = CCCC[C@H](N)C(=O)O
What was measured:
MBP-tagged CORB [1] = biological target: T1, MBP-tagged CORB (human, UniProt Q5S007 1672-1840); test: fluorescence polarization, 10 nM FAM-labeled peptide
T1 construct: range 1672-1840; Purified from E. coli BL21(DE3); also called C-terminal part of the COR domain; His6-MBP-tagged COR-B; not shown: N-terminal His6-MBP tag (pDEST-566)

[2] = biological target: T2, MBP-tagged RocCOR LRRK2 protein (human, UniProt Q5S007 1293-1840, limits assumed); test: as above
T2 construct: domain: RocCOR; Purified from E. coli; FP done in the presence of GTP and MgCl2; also called His6-MBP-tagged RocCOR; not shown: N-terminal His6-MBP tag
T2 sequence (looked up): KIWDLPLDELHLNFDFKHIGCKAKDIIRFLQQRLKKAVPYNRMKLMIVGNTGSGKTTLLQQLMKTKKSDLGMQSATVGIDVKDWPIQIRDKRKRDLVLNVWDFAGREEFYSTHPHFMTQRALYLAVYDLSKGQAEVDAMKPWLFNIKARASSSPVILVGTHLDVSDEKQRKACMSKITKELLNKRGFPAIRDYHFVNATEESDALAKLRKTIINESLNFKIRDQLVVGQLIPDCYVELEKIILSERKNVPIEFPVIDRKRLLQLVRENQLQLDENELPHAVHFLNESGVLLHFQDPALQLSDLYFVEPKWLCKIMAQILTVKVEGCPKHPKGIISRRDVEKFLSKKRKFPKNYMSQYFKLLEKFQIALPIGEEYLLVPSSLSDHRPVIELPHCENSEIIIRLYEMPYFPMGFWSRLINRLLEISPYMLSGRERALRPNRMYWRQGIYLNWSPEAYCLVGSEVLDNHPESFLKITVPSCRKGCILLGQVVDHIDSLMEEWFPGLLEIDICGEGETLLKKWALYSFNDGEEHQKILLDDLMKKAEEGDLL

MBP-tagged CORB [3] = biological target: T1, MBP-tagged CORB; test: fluorescence polarization, 10 nM FAM-labeled peptide, MBP-CORB titrated
Protocol: Fluorescence Polarization (FP) Assays. […] Each FAM-labeled peptide was plated at a final in-well concentration of 10 nM in 384-well microtiter plates. 1:2 dilutions of the protein were then performed from a concentration range of 5 μM to 1 nM. For each peptide: protein interaction, a range of at least 10 protein concentrations was examined, and each concentration was performed in triplicate. The assay was performed in FP buffer (20 mM MOPS pH 7, 150 mM NaCl, and 0.005% CHAPS) at room temperature. The peptide:protein mixture was incubated at room temperature for 2 hours with readings taken every 30 minutes. The final readings were obtained at 2 hours.
The binding affinities of these two peptides towards LRRK2 was measured using fluorescence polarization (FP). Two MBP-tagged protein constructs, CORB and RocCOR, were purified and plated in concentrations ranging from 5 μM to 1 nM along with 10 nM FAM-labeled peptide, 2 mM GTP and 10 mM MgCl_2.

B1: FAM-labeled LCIP1 scramble (peptide)
peptide: {FAM″-PEG3″}-GKWEK[S5]GEL[S5]KL-NH2
modifications: staple 6-10
notes: Scrambled control of LCIP1; also called scrambled peptide control
B1: no binding (tested: protein 5 µM to 1 nM) (MBP-tagged CORB [1]).

B2: FAM-labeled LRIP4 scramble (peptide)
peptide: {FAM″-PEG3″}-Q[Nle]DKAESKNKERKLC[S5]TIK[S5]-NH2
modifications: staple 16-20
notes: Scrambled control of LRIP4; also called scrambled peptide control
B2: no binding (tested: protein 5 µM to 1 nM) [2].

{FAM″-PEG3″}-KGEGE[S5]LLK[S5]WK-NH2 (staple 6-10, 16) [FAM-labeled LCIP1] was tested, and the Kd (MBP-tagged CORB [3]) was 1000 nM.

Reference: patent publication US12565520B2, “Chemically-stabilized allosteric modulators of leucine-rich repeat kinase 2 (LRRK2)” (UNIVERSITY OF GEORGIA RESEARCH FOUNDATION, INC., priority 2020, dated 2026)
